Where a chain is given by its changes, count along the chain named. Like-named read-outs stand apart in the source and are kept apart here. One block for each binder: values may come before it.
Experiments:
[1] = biological target: T1, IGF-1 receptor on the cells of the PathHunter IGF1R Functional Assay (DiscoverX) (UniProt P08069 31-1367); assay: cell-based or functional assay
[2] = biological target: T1, IGF-1 receptor on the cells of the …; assay: cell-based or functional assay; remark: listed apart in the source
[3] = biological target: T1, IGF-1 receptor on the cells of the …; assay: cell-based or functional assay; remark: listed apart in the source
[4] = biological target: T1, IGF-1 receptor on the cells of the …; assay: cell-based or functional assay; remark: listed apart in the source
[5] = biological target: T1, IGF-1 receptor on the cells of the …; assay: cell-based or functional assay; remark: listed apart in the source
[6] = biological target: crab-eating macaque IGF-1 receptor expressed on HEK293T cells (crab-eating macaque); assay: cell-based ELISA on fixed HEK293T cells expressing the receptor, antibody at 5 nM
Sequence of crab-eating macaque IGF-1 receptor expressed on HEK293T cells (crab-eating macaque) (chain, as listed by the source limits assumed): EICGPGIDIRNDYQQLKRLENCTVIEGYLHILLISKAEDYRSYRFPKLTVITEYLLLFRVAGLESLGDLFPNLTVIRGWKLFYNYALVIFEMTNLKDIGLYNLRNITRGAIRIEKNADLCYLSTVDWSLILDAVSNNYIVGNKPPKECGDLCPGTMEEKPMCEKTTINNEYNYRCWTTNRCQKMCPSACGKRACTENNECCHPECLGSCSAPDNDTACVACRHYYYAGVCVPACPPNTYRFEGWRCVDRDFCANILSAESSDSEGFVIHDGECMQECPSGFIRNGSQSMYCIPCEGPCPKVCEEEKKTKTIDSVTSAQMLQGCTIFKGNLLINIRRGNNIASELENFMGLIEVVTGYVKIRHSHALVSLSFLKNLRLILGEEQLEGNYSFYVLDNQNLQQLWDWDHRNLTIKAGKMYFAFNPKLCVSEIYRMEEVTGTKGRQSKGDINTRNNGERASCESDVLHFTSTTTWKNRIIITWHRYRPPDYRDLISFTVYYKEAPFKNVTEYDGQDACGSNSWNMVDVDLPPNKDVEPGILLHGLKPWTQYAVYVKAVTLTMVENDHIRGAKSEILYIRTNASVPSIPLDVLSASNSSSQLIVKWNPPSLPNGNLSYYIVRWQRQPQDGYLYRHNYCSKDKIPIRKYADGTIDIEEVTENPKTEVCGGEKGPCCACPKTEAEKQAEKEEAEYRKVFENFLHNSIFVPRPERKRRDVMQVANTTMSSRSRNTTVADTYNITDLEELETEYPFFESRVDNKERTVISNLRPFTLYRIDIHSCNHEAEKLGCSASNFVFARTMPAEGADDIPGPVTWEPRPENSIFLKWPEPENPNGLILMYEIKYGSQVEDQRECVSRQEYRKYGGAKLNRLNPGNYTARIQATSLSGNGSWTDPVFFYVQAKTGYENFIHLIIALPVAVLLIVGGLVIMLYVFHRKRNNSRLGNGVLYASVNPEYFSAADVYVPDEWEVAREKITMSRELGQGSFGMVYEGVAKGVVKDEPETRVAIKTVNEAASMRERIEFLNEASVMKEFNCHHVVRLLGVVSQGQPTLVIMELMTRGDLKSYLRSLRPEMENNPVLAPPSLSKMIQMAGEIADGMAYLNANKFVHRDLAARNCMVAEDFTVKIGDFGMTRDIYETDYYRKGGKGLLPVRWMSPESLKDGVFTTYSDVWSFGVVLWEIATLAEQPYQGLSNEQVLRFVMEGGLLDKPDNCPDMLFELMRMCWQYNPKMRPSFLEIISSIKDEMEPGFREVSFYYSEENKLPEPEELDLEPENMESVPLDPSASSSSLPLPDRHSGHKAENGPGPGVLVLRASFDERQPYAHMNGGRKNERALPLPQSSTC

[7] = biological target: rabbit IGF-1 receptor expressed on HEK293T cells (rabbit); assay: as above
[8] = biological target: T2, human IGF-1 receptor expressed on HEK293T cells (human, UniProt P08069 31-1367); assay: as above
T2 construct: Cells fixed in formalin before the ELISA; also called human IGF-1 receptor-expressing cells
T2 sequence (P08069 31-1367 limits assumed): as the sequence (chain, as listed by the source limits assumed) above, with A188T, W471S, V729A, L738P, D1238E counted along it

[9] = biological target: guinea pig IGF-1 receptor expressed on HEK293T cells (guinea pig, UniProt P08069 31-1367 (human entry)); assay: as above
Sequence of guinea pig IGF-1 receptor expressed on HEK293T cells (P08069 other isoform, or with tags, fused parts or gaps limits assumed): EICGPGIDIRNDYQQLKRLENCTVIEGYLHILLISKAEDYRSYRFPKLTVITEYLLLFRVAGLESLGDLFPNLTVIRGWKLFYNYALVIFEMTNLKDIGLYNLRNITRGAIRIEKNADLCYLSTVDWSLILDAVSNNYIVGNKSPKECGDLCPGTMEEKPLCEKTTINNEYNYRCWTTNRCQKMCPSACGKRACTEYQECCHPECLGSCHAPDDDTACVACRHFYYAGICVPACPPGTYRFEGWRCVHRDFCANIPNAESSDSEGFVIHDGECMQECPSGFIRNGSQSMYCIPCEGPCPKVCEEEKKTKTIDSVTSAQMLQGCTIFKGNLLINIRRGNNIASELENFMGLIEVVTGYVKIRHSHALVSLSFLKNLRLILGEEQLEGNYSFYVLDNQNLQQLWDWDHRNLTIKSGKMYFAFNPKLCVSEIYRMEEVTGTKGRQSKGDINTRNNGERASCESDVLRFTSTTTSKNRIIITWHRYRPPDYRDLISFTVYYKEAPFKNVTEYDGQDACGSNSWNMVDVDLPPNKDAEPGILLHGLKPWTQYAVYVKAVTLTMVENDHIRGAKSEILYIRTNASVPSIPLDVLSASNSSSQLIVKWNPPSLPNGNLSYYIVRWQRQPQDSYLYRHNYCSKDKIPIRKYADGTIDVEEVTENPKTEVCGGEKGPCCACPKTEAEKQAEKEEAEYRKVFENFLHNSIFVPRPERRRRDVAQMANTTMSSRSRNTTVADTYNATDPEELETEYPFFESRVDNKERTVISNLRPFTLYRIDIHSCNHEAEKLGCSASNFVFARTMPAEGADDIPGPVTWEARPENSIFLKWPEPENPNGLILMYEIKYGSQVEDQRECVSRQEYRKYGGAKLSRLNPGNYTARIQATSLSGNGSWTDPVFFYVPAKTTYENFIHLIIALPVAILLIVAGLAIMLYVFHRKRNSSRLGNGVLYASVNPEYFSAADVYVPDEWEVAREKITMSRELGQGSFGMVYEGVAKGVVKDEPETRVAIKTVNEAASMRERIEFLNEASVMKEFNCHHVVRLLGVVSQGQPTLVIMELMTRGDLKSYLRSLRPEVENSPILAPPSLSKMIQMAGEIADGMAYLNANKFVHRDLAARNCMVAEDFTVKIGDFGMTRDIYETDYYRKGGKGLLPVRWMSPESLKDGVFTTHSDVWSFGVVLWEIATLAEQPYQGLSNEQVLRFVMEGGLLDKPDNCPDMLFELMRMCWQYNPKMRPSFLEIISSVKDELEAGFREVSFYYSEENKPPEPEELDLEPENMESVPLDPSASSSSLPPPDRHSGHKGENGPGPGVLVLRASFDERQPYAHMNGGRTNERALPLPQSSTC

[10] = biological target: mouse IGF-1 receptor expressed on HEK293T cells (mouse, UniProt Q60751 31-1373); assay: cell-based ELISA on fixed HEK293T cells expressing the receptor, compared with Mock cells
Experimental: (§1) HEK293T cells were transfected by lipofection method with pEF1 expression vectors (Thermo Fisher) incorporated with the IGF-1 receptor genes of rabbit (SEQ ID NO: 76), guinea pig (SEQ ID NO: 78), rat (SEQ ID NO: 80) and mouse SEQ ID NO: 82). The transfected HEK293T cells were allowed to grow overnight or longer after the lipofection, and were then added to a 96-well plate (poly-D-lysine coated) at 4×10⁴ cells/well. The cells were then fixed in 10% buffered formalin (Mildform® 10NM, Wako) and blocked with phosphate buffer containing 3% BSA before used for ELISA.
(§2) ELISA was carried out as follows. 100 μL of each humanized antibody solution prepared at 5 nM in 1% BSA/1% FBS/PBS was added to each well, and reacted at 37° C. for about 1 hour. Anti-human IgG antibody HRP conjugate solution prepared at each concentration in 1% BSA/1% FBS/PBS was added to each well at 100 μL, reacted at 37° C. for about 1 hour, and washed three times with washing solution. The reaction was initiated by adding 100 μL of substrate (TMB) to each well. After about 30 minutes, 100 μL of 1M sulfuric acid was added to each well, the absorbances at 450 and 650 nm were measured, and the difference between the absorbances at 450 nm and at 650 nm was calculated. The calculated difference was compared with the difference between the absorbances at 450 nm and at 650 nm for HEK293T cells without IGF-1 receptor gene (Mock) to analyze the binding activity.

[11] = biological target: rat IGF-1 receptor expressed on HEK293T cells (rat, UniProt P24062 31-1370); assay: as above
Sequence of rat IGF-1 receptor expressed on HEK293T cells (P24062 other isoform, or with tags, fused parts or gaps limits assumed): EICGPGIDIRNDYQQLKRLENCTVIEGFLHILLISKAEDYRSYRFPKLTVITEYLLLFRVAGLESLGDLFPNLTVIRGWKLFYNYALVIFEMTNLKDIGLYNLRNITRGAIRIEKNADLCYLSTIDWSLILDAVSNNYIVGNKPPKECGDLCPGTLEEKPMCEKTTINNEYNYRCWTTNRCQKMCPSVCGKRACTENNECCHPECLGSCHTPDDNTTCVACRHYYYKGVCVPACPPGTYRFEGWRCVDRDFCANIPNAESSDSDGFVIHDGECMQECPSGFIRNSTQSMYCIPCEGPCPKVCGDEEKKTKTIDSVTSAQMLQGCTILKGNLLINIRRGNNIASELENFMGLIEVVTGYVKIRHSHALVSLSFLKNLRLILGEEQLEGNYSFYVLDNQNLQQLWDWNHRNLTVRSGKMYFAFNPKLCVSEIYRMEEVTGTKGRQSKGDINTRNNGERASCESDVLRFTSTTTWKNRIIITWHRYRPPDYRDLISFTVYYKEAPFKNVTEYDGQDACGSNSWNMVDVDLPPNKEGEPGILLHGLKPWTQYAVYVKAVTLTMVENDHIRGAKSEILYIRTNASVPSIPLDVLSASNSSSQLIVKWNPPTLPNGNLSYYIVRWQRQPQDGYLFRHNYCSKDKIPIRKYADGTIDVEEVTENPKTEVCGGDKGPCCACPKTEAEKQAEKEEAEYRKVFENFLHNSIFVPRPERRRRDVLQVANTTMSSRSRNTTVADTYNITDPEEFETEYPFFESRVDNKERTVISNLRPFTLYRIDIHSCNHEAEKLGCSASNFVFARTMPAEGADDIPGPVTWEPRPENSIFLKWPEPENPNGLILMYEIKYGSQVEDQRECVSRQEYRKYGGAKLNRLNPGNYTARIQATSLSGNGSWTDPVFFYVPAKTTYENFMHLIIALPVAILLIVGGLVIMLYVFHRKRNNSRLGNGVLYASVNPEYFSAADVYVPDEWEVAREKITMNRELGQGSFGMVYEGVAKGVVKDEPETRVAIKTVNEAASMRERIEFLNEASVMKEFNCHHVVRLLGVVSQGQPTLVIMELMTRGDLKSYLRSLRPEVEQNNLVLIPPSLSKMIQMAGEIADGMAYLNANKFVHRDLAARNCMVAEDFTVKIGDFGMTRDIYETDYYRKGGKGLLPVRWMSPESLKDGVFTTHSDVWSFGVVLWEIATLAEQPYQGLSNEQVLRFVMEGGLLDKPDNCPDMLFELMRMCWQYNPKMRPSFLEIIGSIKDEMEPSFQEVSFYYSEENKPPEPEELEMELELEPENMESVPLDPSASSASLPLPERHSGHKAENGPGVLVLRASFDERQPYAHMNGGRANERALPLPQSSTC
Experimental: as §1, §2

[12] = biological target: T1, IGF-1 receptor on the cells of the …; assay: cell-based or functional assay; remark: listed apart in the source

T1 sequence (P08069 31-1367): as the sequence (chain, as listed by the source limits assumed) above, with A188T, W471S, V729A, L738P, D1238E counted along it

B1: mouse parent antibody IGF11-16 (antibody, mouse IgG1, kappa, V domains shown)
VH: QIQLQQPGAELVKPGASVKLSCKAPGYTFTSYWMHWVKQRPGQGLEWIGETNPSNSVTNYNEKFKSKATLTVDKSSSTAYMQLSSLTSEDSAVYYCTIGRGRGFAYWGQGTLVTVSA
VL: DIQMNQSPSSLSASLGDTITITCRASQNINFWLSWCQQKPGNIPKLLIYKASNLHTGVPSRFSGSGSGTDFTLTISSLQPEDIATYYCLQGQSYPYTFGGGTKLEIKR
Signal intensity ratio (compared to IGF11-16) at 16.7 nM, PathHunter [1]: 1 ratio to IGF11-16
Activation intensity (RLU), PathHunter [2]: 2180 RLU
Fluorescence intensity (0.1 nM) (RLU), PathHunter [2]: 557 RLU
Fluorescence intensity (12.5 nM) (RLU), PathHunter [2]: 2730 RLU
Ratio of activation intensity, PathHunter [2]: 1 relative to IGF11-16
Activation intensity (RLU), PathHunter [3]: 3570 RLU
Fluorescence intensity (0.1 nM) (RLU), PathHunter [3]: 230 RLU
Fluorescence intensity (12.5 nM) (RLU), PathHunter [3]: 3800 RLU
Ratio of activation intensity, PathHunter [3]: 1 relative to IGF11-16

B2: IGF11-16 with alanine substitution of R at position 102 (CDR-H3) (antibody, mouse IgG1, V domains shown)
VH: B1 VH with R102A
VL: DIQMNQSPSSLSASLGDTITITCRASQNINFWLSWCQQKPGNIPKLLIYKASNLHTGVPSRFSGSGSGTDFTLTISSLQPEDIATYYCLQGQSYPYTFGGGTKLEIK
Signal activation EC50 vs IGF11-16, PathHunter [4]: 54.4 ratio vs IGF11-16
Signal activation Emax vs IGF11-16, PathHunter [4]: 4.8 ratio vs IGF11-16

B3: IGF11-16 with alanine substitution of W at position 32 (CDR-L1) (antibody, V domains shown)
VH: B1 VH
VL: B2 VL with W32A
Signal activation EC50 vs IGF11-16, PathHunter [5]: 9.5 ratio vs IGF11-16
Signal activation Emax vs IGF11-16, PathHunter [5]: 1.5 ratio vs IGF11-16

B4: FW1_var1 antibody (antibody, V domains shown)
VH: QVQLVQSGAEVKKPGASVKVSCKASGYTFTSYWMHWVRQAPGQGLEWMGETNPSNSVTNYAQKFQGRVTLTVDTSTSTAYMELSSLRSEDTAVYYCTIGRGRGFAYWGQGTLVTVSS
VL: B2 VL with N5T, L11V, L15V, T18R, I19V, N42K, I83F
Signal intensity ratio (compared to IGF11-16) at 16.7 nM, PathHunter [1]: 0.66 ratio to IGF11-16
Activation intensity (RLU), PathHunter [2]: 1600 RLU
Fluorescence intensity (0.1 nM) (RLU), PathHunter [2]: 555 RLU
Fluorescence intensity (12.5 nM) (RLU), PathHunter [2]: 2160 RLU
Ratio of activation intensity, PathHunter [2]: 0.74 relative to IGF11-16
Activation intensity (RLU), PathHunter [3]: 2270 RLU
Fluorescence intensity (0.1 nM) (RLU), PathHunter [3]: 209 RLU
Fluorescence intensity (12.5 nM) (RLU), PathHunter [3]: 2480 RLU
Ratio of activation intensity, PathHunter [3]: 0.64 relative to IGF11-16

B5: humanized antibody hIGF13_PS (antibody, V domains shown)
VH: B4 VH with S25P, N55S, V93T
VL: B2 VL with N5T, L15V, T18R, I19V, C36Y, N42K, I43V, I83V
notes: also called VL23/VH13_PS
binding activity, fold compared to Mock cells [6]: ~2 fold
binding activity, fold compared to Mock cells [7]: ~2 fold
binding activity, fold compared to Mock cells [8]: ~2 fold
binding activity, fold compared to Mock cells [9]: ~2 fold
binding result [10]: no binding (tested: 5 nM)
binding result [11]: no binding (tested: 5 nM)

B6: FW1_var9-hH2a (antibody, V domains shown)
VH: B4 VH with V5Q
VL: B2 VL with N5T, L11V, L15V, T18R, I19V, C36Y, N42K, I43A, I83F
Signal intensity ratio (compared to IGF11-16) at 16.7 nM, PathHunter [1]: 0.54 ratio to IGF11-16

B7: FW1_var9-hH1a (antibody, V domains shown)
VH: B4 VH with V2I
VL: B2 VL with N5T, L11V, L15V, T18R, I19V, C36Y, N42K, I43A, I83F
Signal intensity ratio (compared to IGF11-16) at 16.7 nM, PathHunter [1]: 0.7 ratio to IGF11-16

B9: FW1_var9-hH7a (antibody, V domains shown)
VH: B4 VH with S25P
VL: B2 VL with N5T, L11V, L15V, T18R, I19V, C36Y, N42K, I43A, I83F
Signal intensity ratio (compared to IGF11-16) at 16.7 nM, PathHunter [1]: 1.09 ratio to IGF11-16

B11: FW1-var9-mFR-H3 (antibody, V domains shown)
VH: B4 VH with T74K, T76S, E82Q, R87T, T91S, S117A
VL: B2 VL with N5T, L11V, L15V, T18R, I19V, C36Y, N42K, I43A, I83F
Signal intensity (ratio to IGF11-16) at 16.7 nM, PathHunter [12]: 0.7 ratio to human chimeric IGF11-16

B13: FW1-var9-mFR-L2 + L3 (antibody, V domains shown)
VH: B4 VH
VL: B2 VL with N5T, L11V, L15V, T18R, I19V, C36Y
Signal intensity (ratio to IGF11-16) at 16.7 nM, PathHunter [12]: 0.5 ratio to human chimeric IGF11-16

B14: FW1_var9-hH5a (antibody, V domains shown)
VH: B4 VH with K12V
VL: B2 VL with N5T, L11V, L15V, T18R, I19V, C36Y, N42K, I43A, I83F
Signal intensity ratio (compared to IGF11-16) at 16.7 nM, PathHunter [1]: 0.56 ratio to IGF11-16

B15: FW1_var14_NEKS (antibody, human IgG4, V domains shown)
VH: B4 VH with A61N, Q62E, Q65K, G66S, V93T
VL: B2 VL with N5T, L11V, L15V, T18R, I19V, C36Y, N42K, I43A, K45R, I83F
Activation intensity (RLU), PathHunter [3]: 1740 RLU
Fluorescence intensity (0.1 nM) (RLU), PathHunter [3]: 221 RLU
Fluorescence intensity (12.5 nM) (RLU), PathHunter [3]: 1960 RLU
Ratio of activation intensity, PathHunter [3]: 0.49 relative to IGF11-16

B16: FW1_var9-hH4a (antibody, V domains shown)
VH: B4 VH with V11L
VL: B2 VL with N5T, L11V, L15V, T18R, I19V, C36Y, N42K, I43A, I83F
Signal intensity ratio (compared to IGF11-16) at 16.7 nM, PathHunter [1]: 0.65 ratio to IGF11-16

B17: FW1-var9-mFR-L1 (antibody, V domains shown)
VH: B4 VH
VL: B2 VL with C36Y, N42K, I43A, I83F
Signal intensity (ratio to IGF11-16) at 16.7 nM, PathHunter [12]: 0.51 ratio to human chimeric IGF11-16

Other lines, results leading:

Signal intensity (ratio to IGF11-16) at 16.7 nM, PathHunter [12]: 0.51 ratio to human chimeric IGF11-16
B8: FW1-var9-mFR-H2 (antibody, V domains shown)
VH: B4 VH with R38K, A40R, M48I
VL: B2 VL with N5T, L11V, L15V, T18R, I19V, C36Y, N42K, I43A, I83F

Signal intensity ratio (compared to IGF11-16) at 16.7 nM, PathHunter [1]: 0.6 ratio to IGF11-16
B10: FW1_var9-hH3a (antibody, V domains shown)
VH: B4 VH with S7P
VL: B2 VL with N5T, L11V, L15V, T18R, I19V, C36Y, N42K, I43A, I83F

Signal intensity (ratio to IGF11-16) at 16.7 nM, PathHunter [12]: 1.08 ratio to human chimeric IGF11-16
B12: FW1-var9-mFR-H1 (antibody, V domains shown)
VH: B4 VH with V2I, V5Q, S7P, V11L, K12V, V20L, S25P
VL: B2 VL with N5T, L11V, L15V, T18R, I19V, C36Y, N42K, I43A, I83F

Signal intensity ratio (compared to IGF11-16) at 16.7 nM, PathHunter [1]: 0.55 ratio to IGF11-16
B18: FW1_var9-hH6a (antibody, V domains shown)
VH: B4 VH with V20L
VL: B2 VL with N5T, L11V, L15V, T18R, I19V, C36Y, N42K, I43A, I83F

Activation intensity (RLU), PathHunter [3]: 1960 RLU
Fluorescence intensity (0.1 nM) (RLU), PathHunter [3]: 223 RLU
Fluorescence intensity (12.5 nM) (RLU), PathHunter [3]: 2190 RLU
Ratio of activation intensity, PathHunter [3]: 0.55 relative to IGF11-16
B19: FW1_var10_NEKS (antibody, human IgG4, V domains shown)
VH: B4 VH with A61N, Q62E, Q65K, G66S, V93T
VL: B2 VL with N5T, L11V, L15V, T18R, I19V, C36Y, N42K, I43A, I83F

binding activity, fold compared to Mock cells [6]: ~2 fold
binding activity, fold compared to Mock cells [7]: ~2 fold
binding activity, fold compared to Mock cells [8]: ~2 fold
binding activity, fold compared to Mock cells [9]: ~2 fold
binding result [10]: no binding (tested: 5 nM)
binding result [11]: no binding (tested: 5 nM)
B20: humanized antibody hIGF25_PS (antibody, V domains shown)
VH: B4 VH with S25P, N55S
VL: B2 VL with N5T, L15V, T18R, I19V, C36Y, N42K, I43V, I83V
notes: also called VL23/VH25_PS
